From patent US20240016952A1 (published 2024)
Where a chain is given by its changes, count along the chain named. Names may count otherwise.

T1: cynomolgus monkey transferrin receptor 1 (cTfR1) (cynomolgus monkey (Macaca fascicularis), UniProt Q5RDH6 89-760 (Pongo abelii entry), limits assumed)
T1 construct: Recombinant cynomolgus TfR1; also called cyTfR1; cyno TfR1
T1 chain: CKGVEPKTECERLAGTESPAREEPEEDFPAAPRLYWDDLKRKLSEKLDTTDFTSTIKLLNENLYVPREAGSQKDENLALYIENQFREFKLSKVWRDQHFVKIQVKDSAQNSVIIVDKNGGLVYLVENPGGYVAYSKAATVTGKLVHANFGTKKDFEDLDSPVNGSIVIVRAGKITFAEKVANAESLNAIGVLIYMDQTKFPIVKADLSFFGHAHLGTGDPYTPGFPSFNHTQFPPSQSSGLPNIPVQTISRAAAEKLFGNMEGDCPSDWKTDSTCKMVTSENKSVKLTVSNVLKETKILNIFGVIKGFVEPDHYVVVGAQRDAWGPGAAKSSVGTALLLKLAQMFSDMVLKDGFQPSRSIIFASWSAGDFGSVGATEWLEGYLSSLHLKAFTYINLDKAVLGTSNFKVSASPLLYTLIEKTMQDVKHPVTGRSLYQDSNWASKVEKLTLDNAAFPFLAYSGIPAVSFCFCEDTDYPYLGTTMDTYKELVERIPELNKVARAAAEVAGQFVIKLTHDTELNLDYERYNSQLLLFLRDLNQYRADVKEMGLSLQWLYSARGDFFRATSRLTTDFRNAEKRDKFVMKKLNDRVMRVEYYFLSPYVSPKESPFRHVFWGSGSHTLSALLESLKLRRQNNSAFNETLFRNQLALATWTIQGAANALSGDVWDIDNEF

B1: humanized anti-TfR Fab 3M12 VH4/Vk3 (Fab, V domains shown)
VH: QVQLQESGPGLVKPSQTLSLTCTVTGYSITSGYYWNWIRQPPGKGLEWIGYITFDGANNYNPSLKNRVSISRDTSKNQFSLKLSSVTAEDTATYYCTRSSYDYDVLDYWGQGTTVTVSS
VL: DIQMTQSPSSLSASVGDRVTITCRASQDISNFLNWYQQKPGQPVKLLIYYTSRLHSGVPSRFSGSGSGTDFTLTISSLQPEDFATYYCQQGHTLPYTFGQGTKLEIKR
B2: humanized anti-TfR Fab 3A4 VH3 (N54S)/Vk4 (Fab, V domains shown)
VH: EVQLVQSGSELKKPGASVKVSCTASGFNIKDDYMYWVRQPPGKGLEWIGWIDPESGDTEYASKFQDRVTVTADTSTNTAYMELSSLRSEDTAVYYCTLWLRRGLDYWGQGTLVTVSS
VL: DIVMTQSPLSLPVTPGEPASISCRSSKSLLHSNGYTYLFWFQQRPGQSPRLLIYRMSNLASGVPDRFSGSGSGTDFTLKISRVEAEDVGVYYCMQHLEYPFTFGGGTKVEIKR
B3: humanized anti-TfR Fab 3A4 VH3/Vk4 (Fab, V domains shown)
VH: B2 VH with S55N
VL: B2 VL
B4: 15G11 (control anti-TfR1 antibody) (antibody, V domains shown)
VH: QVQLQQPGAELVKPGASVKLSCKASGYTFTSYWMHWVKQRPGQGLEWIGEINPTNGRTNYIEKFKSKATLTVDKSSSTAYMQLSSLTSEDSAVYYCARGTRAYHYWGQGTSVTVSS
VL: DIQMTQSPASLSVSVGETVTITCRASDNLYSNLAWYQQKQGKSPQLLVYDATNLADGVPSRFSGSGSGTQYSLKINSLQSEDFGTYYCQHFWGTPLTFGAGTKLELK
B5: 3-A4 mouse monoclonal anti-TfR1 antibody (antibody, V domains shown)
VH: EVQLQQSGAELVRPGASVKLSCTASGFNIKDDYMYWVKQRPEQGLEWIGWIDPENGDTEYASKFQDKATVTADTSSNTAYLQLSSLTSEDTAVYYCTLWLRRGLDYWGQGTSVTVSS
VL: DIVMTQAAPSVPVTPGESVSISCRSSKSLLHSNGYTYLFWFLQRPGQSPQLLIYRMSNLASGVPDRFSGSGSGTAFTLRISRVEAEDVGVYYCMQHLEYPFTFGGGTKLEIK
notes: Mouse mAb (IgG); also called 3-A04
B6: 3-M12 mouse monoclonal anti-TfR1 antibody (antibody, V domains shown)
VH: DVQLQESGPGLVKPSQSLSLTCSVTGYSITSGYYWNWIRQFPGNKLEWMGYITFDGANNYNPSLKNRISITRDTSKNQFFLKLTSVTTEDTATYYCTRSSYDYDVLDYWGQGTTLTVSS
VL: DIQMTQTTSSLSASLGDRVTISCRASQDISNFLNWYQQRPDGTVKLLIYYTSRLHSGVPSRFSGSGSGTDFSLTVSNLEQEDIATYFCQQGHTLPYTFGGGTKLEIK
notes: Mouse mAb (IgG)
B7: 5-H12 mouse monoclonal anti-TfR1 antibody (antibody, V domains shown)
VH: QIQLQQSGPELVRPGASVKISCKASGYSFTDYCINWVNQRPGQGLEWIGWIYPGSGNTRYSERFKGKATLTVDTSSNTAYMQLSSLTSEDSAVYFCAREDYYPYHGMDYWGQGTSVTVSS
VL: DIVLTQSPTSLAVSLGQRATISCRASESVDGYDNSFMHWYQQKPGQPPKLLIFRASNLESGIPARFSGSGSRTDFTLTINPVEAADVATYYCQQSSEDPWTFGGGTKLEIK
notes: Mouse mAb (IgG)

Assays:
[1] = target: T1, cynomolgus monkey transferrin receptor …; test: surface plasmon resonance
[2] = target: T1, cynomolgus monkey transferrin receptor …; test: ELISA on plate-coated cyno TfR1, unconjugated Fab
[3] = target: T1, cynomolgus monkey transferrin receptor …; test: ELISA, cyno TfR1, Fab, day 0 of thermal stability test
[4] = target: T1, cynomolgus monkey transferrin receptor …; test: ELISA, cyno TfR1, Fab after 9 days at 40 C
[5] = target: T2, TfR1 (species not stated; Biacore analyses of Table 14 and Table 16) (Homo sapiens (Human), UniProt P02786 89-760); test: Biacore kinetic analysis; design: unit not given here
T2 construct: also called target antigen

[6] = target: T3, human transferrin receptor 1 (hTfR1) (human, UniProt P02786 89-760); test: average KD, antibody alone; method not given
T3 construct: Recombinant human TfR1; also called huTfR1; Human TfR1

[7] = target: T1, cynomolgus monkey transferrin receptor …; test: average KD, antibody alone; method not given
[8] = target: T3, human transferrin receptor 1 (hTfR1); test: Carterra LSA SPR, IgG captured on anti-IgG chip, hTfR1 injected, 25 C, 1:1 fit

Binder	Fab binding affinity ELISA [2]	Binding affinity cyno TfR1 d 0 [3]	Binding affinity cyno TfR1 d 9 [4]	Kd [7]	also measured
B1	2.2 nM	2.2 nM	16.4 nM		Kd [1]: 5.18 nM; koff [1]: 0.000476 s⁻¹; kon [1]: 91900 M⁻¹ s⁻¹
B2	398 nM	398 nM	248 nM		koff [5]: 65.6
B3	122 nM	122 nM	878 nM		koff [5]: 115
B4				1 nM	Kd [6]: 0.8 nM; Kd [8]: 0.283 nM
B5				2.32 nM	
B6				5.18 nM	
B7				12 nM	
